# In patent US20140017242A1, “ANTI-BRADYKININ B2 RECEPTOR (BKB2R) MONOCLONAL ANTIBODY” (Diamedica, Inc., priority 2010, published 2014):
# B1: 5F12G1: murine monoclonal anti-BKB2R antibody (IgG2b,κ), VH comprising SEQ ID NO:1, VL comprising SEQ ID NO:2 (antibody, listed as Mus musculus, V domains shown)
# VH: EVKLEESGGGLVQPGGSMKLSCVVSGFTFSDYWMSWVRHSPEMGLEWVAEIRLKSDNYATHYAESVKGRFTISRDDSKSRLYLQINSLRGEDTGIYYCTRDYYAMEYWGQGTSVTVSS
# VL: DVVMTQTPLSLPVSLGDQASISCRSSQTIVHSNGKTYLEWYLQKPGQSPKLLIYKVSNRFSGVPDRFSGSGSGTEFTLKISRVETEDLGVYYCFQASHVPYTFGGGTKLEIK
# Legend:
# HT-29 = assay: MTT Cell Proliferation Assay, HT-29; type: cell-based, human; settings: 120 hours of exposure
# Source text: (§1) This Example describes characterization of the cytotoxic activity of herein described anti-BKB2R monoclonal antibodies against a panel of cancer cell lines. BxPC-3 is a human adenocarcinoma cell line originally isolated from the pancreas (pancreatic cancer) (ATCC # CRL-1687; Tan et al., Cancer Invest. 4: 15-23, 1986. PubMed: 3754176). MV-4-11 is a human biphenotypic B myelomonocytic leukemia (mixed-lineage leukemia, MLL-AF4) cell line originally isolated from the peripheral blood (ATCC # CRL-959; Lange et al., Blood 70: 192-199, 1987. PubMed: 3496132). Hep G2 is a human hepatocellular carcinoma cell line isolated from the liver (liver cancer) (ATCC # HB-8065; Aden et al., Nature 282: 615-616, 1979. PubMed: 233137). RS4;11 is a human acute lymphoblastic leukemia (mixed-lineage leukemia, MLL-AF4) cell line isolated from the bone marrow (ATTC # CRL-1873) Stong et al., Blood 65: 21-31, 1985. PubMed: 3917311). HT-29 is a human colorectal adenocarcinoma (ATTC # HTB-38) cell line isolated from the colon (colon cancer). Fogh et al., J. Natl. Cancer Inst. 58: 209-214, 1977. PubMed: 833871). NUGC-4 is a human stomach carcinoma isolated from the stomach paragastiric lymph node (JCRB # JCRB0834; Akiyama et al., Jpn. J. Surg., 18: 438-446, 1988). […]
# (§2) The anti-proliferative activity of test compounds against the indicated cell lines was evaluated in vitro using the ATCC's MTT Cell Proliferation Assay (Catalog No. 30-1010K). After the 120 hour incubation with drug (e.g., anti-BKB2R mAb or cisplatin), cell proliferation was measured by addition of MTT reagent to each well and incubation for an additional 4 hrs. […] Optical absorbance (570 nm) of the test wells was measured and then quantitated relative to control wells that received no drug. Results were expressed as percent inhibition versus compound concentration and graphed, as shown in FIGS. 19-25, for cell lines BxPC-3, MV-4;11, HepG2, RS-4;11, HT-29, NUGC-4, and PC-3, respectively.
# [1] = biological target: T1, human BKB2R-derived epitope peptide, SE ID NO:73 (Homo sapiens, UniProt P30411); assay: ForteBio Octet binding kinetics to the BKB2R epitope peptide
# T1 construct: purchased Biosyn, Lewisville, Tex
# In short: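 Antibodies were titrated kinetically on a ForteBio Octet label-free biolayer interferometry platform against the human BKB2R epitope peptide (SEQ ID NO:73), compared with the parent mouse monoclonal. Streptavidin biosensors coated with biotinylated peptide at 50 μg/ml were equilibrated in kinetic buffer, then underwent 500 s association in antibody dilutions and 500 s dissociation in buffer.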
# MV-4-11 = assay: MTT Cell Proliferation Assay, MV-4-11; type: cell-based, human; settings: 120 hours of exposure
# Source text: as §1, §2
molecule,measurement,setting,value
B1,EC 50 Values (ng/ml) HT-29,HT-29,16000 ng/mL
same,Max Response,[1]; Conc. 833 nM,0.0265
same,kdis,[1]; Conc. 833 nM,0.00109 s⁻¹
same,kon,[1]; Conc. 833 nM,2350 M⁻¹ s⁻¹
same,Max Response,[1]; Conc. 1000 nM,0.0385
same,kdis,[1]; Conc. 1000 nM,0.00109 s⁻¹
same,kon,[1]; Conc. 1000 nM,2350 M⁻¹ s⁻¹
same,Max Response,[1]; Conc. 1667 nM,0.0544
same,kdis,[1]; Conc. 1667 nM,0.00109 s⁻¹
same,kon,[1]; Conc. 1667 nM,2350 M⁻¹ s⁻¹
same,Max Response,[1]; Conc. 3333 nM,0.0757
same,kdis,[1]; Conc. 3333 nM,0.00109 s⁻¹
same,kon,[1]; Conc. 3333 nM,2350 M⁻¹ s⁻¹
same,EC 50 Values (ng/ml) MV-4-11,MV-4-11,35000 ng/mL
